# Assay results reported in article PMC5430804, “Structural and biochemical insights of CypA and AIF interaction” (Scientific Reports, 2017).
# B1: AIF(370-394) synthetic peptide (peptide, UniProt O95831 370-394, looked up)
# peptide: QSVGVSSGKLLIKLKDGRKVETDHI
# notes: also called AIF peptide; source: synthetic peptide
# B2: CypA(55-69) + (67–79) + (49-62), three peptides tested in combination (other)
# peptide 1: RIIPGFMCQGGDFTR
# peptide 2: FTRHNGTGGKSIY
# peptide 3: KGSCFHRIIPGFMC
# notes: Cyclophilin A (CypA), residues 55-69; Cyclophilin A (CypA), residues 67-79; Cyclophilin A (CypA), residues 49-62; A mixture of separate peptides; source: synthetic peptides, combined; copies: + +
# B3: CypA(55-69) + (49–62), two peptides tested in combination (other)
# peptide 1: RIIPGFMCQGGDFTR
# peptide 2: KGSCFHRIIPGFMC
# notes: Cyclophilin A (CypA), residues 55-69; Cyclophilin A (CypA), residues 49-62; A mixture of separate peptides; source: synthetic peptides, combined
# B4: CypA(121-131) + (99–109), two peptides tested in combination (other)
# peptide 1: WLDGKHVVFGK
# peptide 2: SMANAGPNTNG
# notes: Cyclophilin A (CypA), residues 99-109; A mixture of separate peptides; source: synthetic peptides, combined
# B5: CypA(55-69) + (67–79), two peptides tested in combination (other)
# peptide 1: RIIPGFMCQGGDFTR
# peptide 2: FTRHNGTGGKSIY
# notes: Cyclophilin A (CypA), residues 55-69; Cyclophilin A (CypA), residues 67-79; A mixture of separate peptides; source: synthetic peptides, combined
# B6: CypA(121-131) + (83–90), two peptides tested in combination (other)
# peptide 1: WLDGKHVVFGK
# peptide 2: FEDENFIL
# notes: Cyclophilin A (CypA), residues 83-90; A mixture of separate peptides; source: synthetic peptides, combined
# B7: CypA(67-79) + (49–62), two peptides tested in combination (other)
# peptide 1: FTRHNGTGGKSIY
# peptide 2: KGSCFHRIIPGFMC
# notes: Cyclophilin A (CypA), residues 67-79; Cyclophilin A (CypA), residues 49-62; A mixture of separate peptides; source: synthetic peptides, combined
# B8: CypA(121-131) + (99–109) + (83-90), three peptides tested in combination (other)
# peptide 1: WLDGKHVVFGK
# peptide 2: SMANAGPNTNG
# peptide 3: FEDENFIL
# notes: Cyclophilin A (CypA), residues 99-109; Cyclophilin A (CypA), residues 83-90; A mixture of separate peptides; source: synthetic peptides, combined; copies: + +
# B9: CypA(55-69) peptide with R69 replaced by alanine (peptide, UniProt P62937 55-69, looked up)
# peptide: RIIPGFMCQGGDFTA
# notes: Cyclophilin A (CypA), residues 55-69, R69 replaced by alanine; also called CypA(55-69)R69; source: synthetic peptide
# B10: CypA(99-109) + (83–90), two peptides tested in combination (other)
# peptide 1: SMANAGPNTNG
# peptide 2: FEDENFIL
# notes: Cyclophilin A (CypA), residues 99-109; Cyclophilin A (CypA), residues 83-90; A mixture of separate peptides; source: synthetic peptides, combined
# Molecular target: T1, His-tagged Cyclophilin A (CypA) (UniProt P62937 1-165)
# T1 construct: Cyclophilin A (CypA), peptidyl-prolyl isomerase; Uniformly 15N-labelled for the NMR experiments, unlabelled elsewhere; also called CypA wild type; 15N-CypA; source: bacteria, IPTG-induced, purified (His-trap HP, size exclusion chromatography)
# T1 sequence (P62937 whole entry): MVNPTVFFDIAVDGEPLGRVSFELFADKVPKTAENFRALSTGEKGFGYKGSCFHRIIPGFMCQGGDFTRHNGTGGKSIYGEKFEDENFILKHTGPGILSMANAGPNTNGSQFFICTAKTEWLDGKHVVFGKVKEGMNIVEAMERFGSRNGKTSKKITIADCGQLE
# Assay: ITC; AIF(370-394) 0.7 mM injected (20 x 2 μL) into CypA 5 μM, 25 °C, PBS 1X with 1 mM DTT, pH 7.4; single-site model; triplicate
# Settings: both partners purified
row,Binder,Kd
1,B1,6 µM

# Molecular target: T1, His-tagged Cyclophilin A (CypA)
# Assay: EnSpire label-free direct binding assay; direct binding of CypA peptides, CypA or CypA R55A with AIF(370-394) or AIF(Δ1-121); details (who was immobilised) in the Supplementary Information
# Settings: both partners purified
row,Binder,Kd
1,B1,3 ± 0.6 µM

# Molecular target: T2, CypA R55A mutant (UniProt P62937 1-165, R55A)
# T2 construct: Cyclophilin A (CypA) with R55A; the R55A mutant corresponding to His-tagged CypA; The starting construct carried a Myc tag; also called R55A CypA mutant; R55A mutated CypA; source: prepared starting from the construct pCMV6-AC-Myc-CypA^R55A
# T2 sequence (P62937 whole entry R55A): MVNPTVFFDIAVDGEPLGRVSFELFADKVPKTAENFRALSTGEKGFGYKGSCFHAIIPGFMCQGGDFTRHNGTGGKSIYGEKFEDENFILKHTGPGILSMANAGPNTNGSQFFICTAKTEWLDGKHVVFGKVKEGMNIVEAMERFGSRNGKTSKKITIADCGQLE
# Assay: as above
# Settings: both partners purified
row,Binder,Kd
1,B1,3.1 ± 0.7 µM

# Molecular target: T3, Apoptosis Inducing Factor, pro-apoptotic form AIF(Δ1-121) (UniProt O95831 122-613)
# T3 construct: also called apoptogenic form of AIF
# T3 sequence (O95831 122-613, stated change not applied): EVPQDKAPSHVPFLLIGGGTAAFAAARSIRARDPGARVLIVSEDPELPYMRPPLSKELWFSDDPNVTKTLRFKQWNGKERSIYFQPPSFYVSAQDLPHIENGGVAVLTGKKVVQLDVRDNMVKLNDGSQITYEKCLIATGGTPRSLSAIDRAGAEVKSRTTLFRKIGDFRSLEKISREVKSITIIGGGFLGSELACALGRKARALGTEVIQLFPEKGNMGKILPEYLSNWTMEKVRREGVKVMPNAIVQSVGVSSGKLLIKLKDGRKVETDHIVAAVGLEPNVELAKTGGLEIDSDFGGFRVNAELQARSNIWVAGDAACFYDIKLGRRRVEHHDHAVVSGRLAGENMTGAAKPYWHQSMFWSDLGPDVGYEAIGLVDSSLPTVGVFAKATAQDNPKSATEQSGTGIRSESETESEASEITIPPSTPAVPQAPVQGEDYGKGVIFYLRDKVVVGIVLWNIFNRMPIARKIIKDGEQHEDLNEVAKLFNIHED
# Assay: as above
# Settings: both partners purified
row,Binder,Kd
1,B2,25.2 ± 5 µM
2,B3,2.2 ± 0.7 µM
3,B4,27.2 ± 5.8 µM
4,B5,51.4 ± 12.2 µM
5,B6,31.3 ± 2.8 µM
6,B7,2.8 ± 0.9 µM
7,B8,38.8 ± 4.6 µM
8,B9,> 1000 µM

# Molecular target: B1
# Assay: as above
# Settings: both partners purified
row,Binder,Kd
1,B2,20.7 ± 6.5 µM
2,B3,4.6 ± 1.3 µM
3,B4,43 ± 6.8 µM
4,B5,34.9 ± 8.1 µM
5,B6,87 ± 5.8 µM
6,B7,3.1 ± 1.3 µM
7,B10,304 ± 10.8 µM
8,B8,268 ± 9.65 µM
